Test results published in patent US12697350B2, “Methods and compositions for treating a premature termination codon-mediated disorder” (Tevard Biosciences, Inc., priority 2019, dated 2026).
Entries after “also recorded” stand apart in the source; their conditions may differ.

Tested on: mouse SCN1A with an Arg(R)-to-TGA PTC (R1407X) and 3×FLAG tag
Assay: Rescue of full-length SCN1A protein expression, anti-FLAG Western blot, Flp-In-293 cells (FIGS. 37-39)
Type: cell-based, human
Text: FIG. 37A is a Western blot depicting rescue of full-length SCN1A protein expression by a suppressor tRNA. Flp-In-293 cells were transfected with an expression construct containing mouse SCN1A with an Arg(R)-to-TGA PTC (R1407X) and a 3×FLAG tag peptide (DYKDHD-G-DYKDHD-I-DYKDDDDK) at the C-terminus (SEQ ID NO: 899) (“SCN1a (R1407*)”) and either (i) co-transfected with an expression construct containing the ArgTCA suppressor tRNA #115 (SEQ ID NO: 18) (“Arg>TGA #115”), or (ii) treated with ataluren at the indicated concentration, (iii) treated with gentamicin at the indication concentration, or (iv) treated with G418 at the indicated concentration. “SCN1a (w.t.)” indicates cells transfected with an expression construct containing wild-type mouse SCN1A and a 3×FLAG tag peptide at the C-terminus (SEQ ID NO: 898). Protein was isolated at 24 hours post transfection and SCN1A was detected using a monoclonal anti-FLAG M2 antibody. Molecular weights based on protein molecular weight markers are indicated to the left of the gel. The intensity of bands corresponding to the size of full-length SCN1A protein was measured using ImageJ and all intensity values were normalized to wild-type SCN1A protein (“SCN1a (w.t.)” lane). Cells co-transfected with expression vectors containing mutant SCN1A and the ArgTCA suppressor tRNA expressed greater than 70% of the full-length SCN1A expressed by cells transfected with an expression construct containing wild-type SCN1A.
FIG. 38A is a Western blot depicting rescue of full-length SCN1A protein expression by suppressor tRNAs. Flp-In-293 cells were co-transfected with (i) an expression construct containing mouse SCN1A with an Arginine-to-TGA PTC (R1407X) and a 3×FLAG tag peptide (DYKDHD-G-DYKDHD-I-DYKDDDDK) at the C-terminus (SEQ ID NO: 899) (“SCN1a (R1407*)”) and (ii) either the #104 ArgTCA suppressor tRNA (SEQ ID NO: 6) (“Sup #104”), the #106 ArgTCA suppressor tRNA (SEQ ID NO: 8) (“Sup #106”), or the ArgTCA suppressor tRNA #115 (SEQ ID NO: 18) (“Sup #115”). “SCN1a (w.t.)” indicates cells transfected with an expression construct containing wild-type mouse SCN1A and a 3×FLAG tag peptide at the C-terminus (SEQ ID NO: 898). Protein was isolated at 24 hours post transfection and SCN1A was detected using a monoclonal anti-FLAG M2 antibody. Molecular weights based on protein molecular weight markers are indicated to the left of the gel. The intensity of bands corresponding to the size of full-length SCN1A protein was measured using ImageJ and all intensity values were normalized to wild-type SCN1A protein (“SCN1a (w.t.)” lane). Cells co-transfected with expression vectors containing mutant SCN1A and the ArgTCA suppressor tRNA expressed greater than 30% (Sup #104), greater than 60% (Sup #106), or greater than 70% (Sup #115) of the full-length SCN1A expressed by cells transfected with an expression construct containing wild-type SCN1A.
FIG. 39A is a Western blot depicting rescue of full-length SCN1A protein expression by a suppressor tRNA. Flp-In-293 cells were cultured in 6-well cell culture plates and co-transfected with (i) an expression construct containing mouse SCN1A with an Arginine-to-TGA PTC (R1407X) and a 3×FLAG tag peptide (DYKDHD-G-DYKDHD-I-DYKDDDDK) at the C-terminus (SEQ ID NO: 899) (“SCN1a (R1407*)”) and (ii) the ArgTCA suppressor tRNA #115 (SEQ ID NO: 18) (“Arg>TGA #115”) at the indicated concentrations. 1× indicates 400 ng of the ArgTCA suppressor tRNA construct per well, 0.3× indicates 133 ng of the ArgTCA suppressor tRNA construct per well, 0.1× indicates 40 ng of the ArgTCA suppressor tRNA construct per well, and 0.03× indicates 13 ng of the ArgTCA suppressor tRNA construct per well. “SCN1a (w.t.)” indicates cells transfected with an expression construct containing wild-type mouse SCN1A and a 3×FLAG tag peptide at the C-terminus (SEQ ID NO: 898). Protein was isolated at 24 hours post transfection and SCN1A was detected using a monoclonal anti-FLAG M2 antibody. […]

B1: tRNA-Arg-TCT-2-1-TCA-SUP_no intron (nucleic acid)
chain: GGCTCCGTGGCGCAATGGATAGCGCATTGGACTTCAAATTCAAAGGTTCCGGGTTCGAGTCCCGGCGGAGTCG
modifications: chemistry not fully specified
Question: What does the source list for B1?
Answer: rescue of full-length SCN1A protein expression over dose range (13 to 400 ng suppressor tRNA construct per well, 6-well plate (FIG. 39)): able to rescue full-length SCN1A protein expression over a broad dose range; full-length SCN1A expressed, relative to cells transfected with wild-type SCN1A construct (Flp-In-293, 24 hours post transfection, Western blot band intensity (ImageJ) normalized to wild-type SCN1A): greater than 70%; rescue of full-length SCN1A protein expression (Flp-In-293, SCN1A R1407X-3×FLAG, Western blot, 24 hours post transfection): able to rescue full-length SCN1A protein expression; also recorded: rescued full-length SCN1A protein expression
